Patent US20050255559A1 (published 2005)

B1: human calcium sensitive potassium channel β2 subunit (other)
chain: MFIWTSGRTSSSYRHDEKRNIYQKIRDHDLLDKRKTVTALKAGEDRAILLGLAMMVCSIMMYFLLGITLLRSYMQSVWTEESQCTLLNASITETFNCSFSCGPDCWKLSQYPCLQVYVNLTSSGEKLLLYHTEETIKINQKCSYIPKCGKNFEESMSLVNVVMENFRKYQHFSCYSDPEGNQKSVILTKLYSSNVLFHSLFWPTCMMAGGVAIVAMVKLTQYLSLLCERIQRINR
B2: human calcium sensitive potassium channel β3a subunit (other)
chain: MQPFSIPVQITLQGSRRRQGRTAFPASGKKRETDYSDGDPLDVHKRLPSSTGEDRAVMLGFAMMGFSVLMFFLLGTTILKPFMLSIQREESTCTAIHTDIMDDWLDCAFTCGVHCHGQGKYPCLQVFVNLSHPGQKALLHYNEEAVQINPKCFYTPKCHQDRSDLLNSALDIKEFFDHKNGTPFSCFYSPASQSEDVILIKKYDQMAIFHCLFWPSLTLLGGALIVGMVRLTQHLSLLCEKYSTVVRDEVGGKVPYIEQHQFKLCIMRRSKGRAEKS
B3: human calcium sensitive potassium channel β3c subunit (other)
chain: MFPLLYELTAVSPSPFPQRTAFPASGKKRETDYSDGDPLDVHKRLPSSTGEDRAVMLGFAMMGFSVLMFFLLGTTILKPFMLSIQREESTCTAIHTDIMDDWLDCAFTCGVHCHGQGKYPCLQVFVNLSHPGQKALLHYNEEAVQINPKCFYTPKCHQDRSDLLNSALDIKEFFDHKNGTPFSCFYSPASQSEDVILIKKYDQMAIFHCLFWPSLTLLGGALIVGMVRLTQHLSLLCEKYSTVVRDEVGGKVPYIEQHQFKLCIMRRSKGRAEKS

Target: human calcium sensitive potassium channel α subunit (human Slowpoke α) (human, UniProt Q12791 1-1236)
Sequence (Q12791 whole entry): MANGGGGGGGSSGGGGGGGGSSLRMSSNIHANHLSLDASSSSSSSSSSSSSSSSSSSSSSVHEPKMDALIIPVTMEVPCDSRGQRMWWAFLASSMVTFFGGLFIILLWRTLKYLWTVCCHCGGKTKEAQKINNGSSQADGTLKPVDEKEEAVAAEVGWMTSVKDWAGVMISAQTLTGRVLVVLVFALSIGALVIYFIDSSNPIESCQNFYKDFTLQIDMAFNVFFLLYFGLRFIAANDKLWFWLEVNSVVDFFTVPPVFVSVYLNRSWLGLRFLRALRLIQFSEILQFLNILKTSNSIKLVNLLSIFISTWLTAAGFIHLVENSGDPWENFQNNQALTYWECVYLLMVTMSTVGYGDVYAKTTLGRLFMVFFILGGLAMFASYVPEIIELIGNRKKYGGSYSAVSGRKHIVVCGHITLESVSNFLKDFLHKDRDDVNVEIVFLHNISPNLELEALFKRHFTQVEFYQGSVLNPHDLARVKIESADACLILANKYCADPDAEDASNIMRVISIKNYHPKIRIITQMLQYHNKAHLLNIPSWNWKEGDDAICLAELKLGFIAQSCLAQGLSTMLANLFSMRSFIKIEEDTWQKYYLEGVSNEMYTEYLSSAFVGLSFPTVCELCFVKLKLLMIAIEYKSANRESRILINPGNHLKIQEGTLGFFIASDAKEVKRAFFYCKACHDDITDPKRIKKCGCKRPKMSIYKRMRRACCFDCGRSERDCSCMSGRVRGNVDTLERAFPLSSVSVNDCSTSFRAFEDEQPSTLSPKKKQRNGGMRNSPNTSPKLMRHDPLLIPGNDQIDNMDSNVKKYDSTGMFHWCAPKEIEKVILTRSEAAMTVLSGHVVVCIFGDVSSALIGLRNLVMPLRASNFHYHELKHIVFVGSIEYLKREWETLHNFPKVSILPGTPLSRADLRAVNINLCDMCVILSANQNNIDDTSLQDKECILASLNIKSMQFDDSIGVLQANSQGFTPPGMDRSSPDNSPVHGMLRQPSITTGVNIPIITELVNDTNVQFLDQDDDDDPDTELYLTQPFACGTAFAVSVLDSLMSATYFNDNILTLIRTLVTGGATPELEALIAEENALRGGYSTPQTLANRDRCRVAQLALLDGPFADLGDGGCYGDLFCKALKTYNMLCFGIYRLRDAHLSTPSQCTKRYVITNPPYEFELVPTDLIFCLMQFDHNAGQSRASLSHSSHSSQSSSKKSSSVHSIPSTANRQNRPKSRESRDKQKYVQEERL
Assay: cell-based or functional assay

V1/2 (half-maximal activation voltage, Boltzmann fit, inside-out patches, 30 µM Ca2+) | Binder
-55 mV | B1
45.4 mV | B2
20 mV | B3
